# Reference: the supplement of paper PMC9112550, “Optimization of the antimicrobial peptide Bac7 by deep mutational scanning” (BMC Biology, 2022)
# System: Escherichia coli TOP10
# Assay: shrunken log2 fold change of peptide-encoding DNA abundance (4.5 h post-induction vs induction); higher = less antimicrobial activity (less host growth inhibition)
# Conditions: time post-induction: 4.5 h; library: site-saturation at positions 5, 18, 19, 20
# 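Further: peptides expressed intracellularly from a pBAD plasmid library in pooled LB shake-flask culture, induced with 0.3% L-arabinose, DNA abundance read by NGS, three biological replicates, DESeq2 with apeglm shrinkage.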
row,Sequence,shrunken log2 fold change
1,RRIRMRPPRLPRPRPRPMRRPRP,0.487
2,RRIRCRPPRLPRPRPRPTKEPRP,-0.0808
3,RRIRWRPPRLPRPRPRPCPFPRP,-0.646
4,RRIRTRPPRLPRPRPRPAIEPRP,0.0358
5,RRIRCRPPRLPRPRPRPYGHPRP,-0.0546
6,RRIRARPPRLPRPRPRPDDEPRP,1.43
7,RRIRDRPPRLPRPRPRPMWTPRP,0.217
8,RRIRPRPPRLPRPRPRPDSEPRP,-0.208
9,RRIRPRPPRLPRPRPRPRRFPRP,0.0399
10,RRIRMRPPRLPRPRPRPSNTPRP,-0.0896
11,RRIRGRPPRLPRPRPRPYRTPRP,-0.108
12,RRIRERPPRLPRPRPRPRVAPRP,0.343
13,RRIRERPPRLPRPRPRPFAYPRP,0.155
14,RRIRRRPPRLPRPRPRPGFKPRP,0.0975
15,RRIRPRPPRLPRPRPRPDRHPRP,-0.31
16,RRIRKRPPRLPRPRPRPTVHPRP,0.467
17,RRIRWRPPRLPRPRPRPCERPRP,-0.0115
18,RRIRTRPPRLPRPRPRPMKKPRP,-0.115
19,RRIRPRPPRLPRPRPRPWKHPRP,-0.19
20,RRIRTRPPRLPRPRPRPALPPRP,0.204
21,RRIRFRPPRLPRPRPRPCWWPRP,0.696
22,RRIRWRPPRLPRPRPRPNYIPRP,-0.57
23,RRIRYRPPRLPRPRPRPNYLPRP,-0.161

row,Sequence,shrunken log2 fold change
1,RRIRLRPPRLPRPRPRPGYKPRP,-0.514
2,RRIRRRPPRLPRPRPRPISKPRP,-0.198
3,RRIRCRPPRLPRPRPRPRHTPRP,-0.0438
4,RRIRYRPPRLPRPRPRPTYIPRP,-0.58
5,RRIRFRPPRLPRPRPRPKFWPRP,0.265
6,RRIRSRPPRLPRPRPRPWTQPRP,0.149
7,RRIRSRPPRLPRPRPRPVSFPRP,0.118
8,RRIRGRPPRLPRPRPRPHAGPRP,1.06
9,RRIRARPPRLPRPRPRPCTIPRP,-0.000283
10,RRIRIRPPRLPRPRPRPWMMPRP,-0.178
11,RRIRNRPPRLPRPRPRPFSAPRP,-0.264
12,RRIRRRPPRLPRPRPRPPLQPRP,0.682
13,RRIRIRPPRLPRPRPRPTYTPRP,-0.405
14,RRIRTRPPRLPRPRPRPCAKPRP,0.423
15,RRIRSRPPRLPRPRPRPWHLPRP,-0.273
16,RRIRTRPPRLPRPRPRPMDYPRP,-0.00965
17,RRIRRRPPRLPRPRPRPIMAPRP,0.107
18,RRIRWRPPRLPRPRPRPNRWPRP,0.218
19,RRIRIRPPRLPRPRPRPNHSPRP,-0.639
20,RRIRERPPRLPRPRPRPFAMPRP,-0.207
21,RRIRCRPPRLPRPRPRPTTQPRP,0.0242
22,RRIRYRPPRLPRPRPRPTWSPRP,-0.58
23,RRIRRRPPRLPRPRPRPIRHPRP,0.307

row,Sequence,shrunken log2 fold change
1,RRIRLRPPRLPRPRPRPVVAPRP,0.0705
2,RRIRNRPPRLPRPRPRPLMYPRP,-0.158
3,RRIRWRPPRLPRPRPRPCKWPRP,-0.275
4,RRIRARPPRLPRPRPRPSCKPRP,-0.291
5,RRIRPRPPRLPRPRPRPGAMPRP,0.454
6,RRIRPRPPRLPRPRPRPSLSPRP,0.022
7,RRIRVRPPRLPRPRPRPNYQPRP,-0.699
8,RRIRVRPPRLPRPRPRPYEWPRP,-0.303
9,RRIRSRPPRLPRPRPRPPIDPRP,-0.0487
10,RRIRMRPPRLPRPRPRPNFLPRP,-0.0651
11,RRIRTRPPRLPRPRPRPHMYPRP,-0.275
12,RRIRRRPPRLPRPRPRPAYGPRP,0.286
13,RRIRDRPPRLPRPRPRPRFTPRP,0.21
14,RRIRQRPPRLPRPRPRPSRNPRP,-0.0593
15,RRIRLRPPRLPRPRPRPGNAPRP,0.0676
16,RRIRYRPPRLPRPRPRPNHFPRP,-0.0628
17,RRIRLRPPRLPRPRPRPRTMPRP,-0.0102
18,RRIRWRPPRLPRPRPRPSVYPRP,0.0378
19,RRIRCRPPRLPRPRPRPHSKPRP,-0.438
20,RRIRVRPPRLPRPRPRPNWEPRP,0.104
21,RRIRGRPPRLPRPRPRPMFMPRP,0.0699
22,RRIRWRPPRLPRPRPRPVGFPRP,0.558
23,RRIRRRPPRLPRPRPRPAHFPRP,0.0399

row,Sequence,shrunken log2 fold change
1,RRIRNRPPRLPRPRPRPSFWPRP,-0.056
2,RRIRCRPPRLPRPRPRPAHYPRP,-0.127
3,RRIRDRPPRLPRPRPRPCQTPRP,0.00442
4,RRIRHRPPRLPRPRPRPDAPPRP,2.03
5,RRIRNRPPRLPRPRPRPVEPPRP,0.173
6,RRIRTRPPRLPRPRPRPGLLPRP,0.0639
7,RRIRTRPPRLPRPRPRPHQRPRP,-0.0533
8,RRIRARPPRLPRPRPRPCMEPRP,0.0522
9,RRIRVRPPRLPRPRPRPAGKPRP,-0.308
10,RRIRMRPPRLPRPRPRPELAPRP,3.6
11,RRIRERPPRLPRPRPRPIGDPRP,-0.942
12,RRIRYRPPRLPRPRPRPETEPRP,0.0184
13,RRIRRRPPRLPRPRPRPEYMPRP,0.0765
14,RRIRSRPPRLPRPRPRPMLIPRP,-0.131
15,RRIRWRPPRLPRPRPRPNSGPRP,0.0642
16,RRIRYRPPRLPRPRPRPNVSPRP,-0.0178
17,RRIRQRPPRLPRPRPRPVSFPRP,-0.309
18,RRIRTRPPRLPRPRPRPTMMPRP,-0.14
19,RRIRCRPPRLPRPRPRPALDPRP,0.356
20,RRIRIRPPRLPRPRPRPWTNPRP,-0.00152
21,RRIRARPPRLPRPRPRPNHPPRP,-0.0147
22,RRIRMRPPRLPRPRPRPKWYPRP,-0.171
